Measurements as given in the supplement of paper PMC6757056.
± gives the standard deviation of the averaged measurements.

B1: library; a variant is named by its letters at N, in order (parent)
chain: GCUGUCACCGGUGUAUUACCCUAGUGGUCGACCGGUCUGAUGAGUCUNNNNNNAGACGAAACAGC

Legend:
hypoxanthine [1] = variants of: B1; assay: FACS-Seq fitted mean relative fluorescence mCherry/BFP without ligand (log10 relative fluorescence); ligand: hypoxanthine (xanthine aptamer); higher = higher reporter protein expression; details: HEK293T, ligand present: no
Outline: (§1)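 An mCherry reporter containing the ribozyme switch and an EF1α-BFP marker were introduced by lentivirus into HEK293T libraries. Cells were enriched, incubated 48 h with or without ligand, sorted into 6 bins by mCherry/BFP, and bin genomic DNA was PCR-amplified, barcoded and sequenced on MiSeq. Fluorescence represents the normalized fitted normal mean of the bin counts. Fitting was done on log10(mCherry/BFP), scaling to five spiked-in control ribozymes.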

hypoxanthine [2] = variants of: B1; assay: normalized RNA/DNA level with ligand (relative to sTRSVctl = 100) (log10 (% of sTRSVctl)); ligand: hypoxanthine (xanthine aptamer); higher = less ribozyme self-cleavage, higher mRNA level; details: ligand concentration (+) RNA-Seq: 5 mM, HEK293T, reporter: mCherry (pCS4076), ligand present: yes
Outline: (§2)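 Library plasmids carrying ribozyme switches linked to mCherry, or to eGFP in some ligand experiments, were transfected into HEK293T at 4 µg per 6-well well, with any ligand added 1 h earlier. Seventy-two hours on, total RNA was extracted with EDTA and reverse-transcribed, amplified, barcoded and sequenced. RNA level was RNA over DNA reads normalized to a spiked-in non-cleaving sequence or to the top sequences, then scaled and log-transformed. The top set was 25 sequences, the transform was ×100 and log10, and sequences needed ≥100 DNA reads.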

hypoxanthine [3] = variants of: B1; assay: normalized RNA/DNA level without ligand (relative to sTRSVctl = 100) (log10 (% of sTRSVctl)); ligand: hypoxanthine (xanthine aptamer); higher = less ribozyme self-cleavage, higher mRNA level; details: HEK293T, reporter: mCherry (pCS4076), ligand present: no
Outline: as §2

hypoxanthine [4] = variants of: B1; assay: FACS-Seq fitted mean relative fluorescence mCherry/BFP with ligand (log10 relative fluorescence); ligand: hypoxanthine (xanthine aptamer); ligand concentration (+) FACS-Seq: 5 mM; higher = higher reporter protein expression; details: HEK293T, ligand present: yes
Outline: as §1

Variant	FACS-Seq fitted mean (log10) (hypoxanthine [1])	normalized RNA/DNA level with ligand (log10) (hypoxanthine [2])	normalized RNA/DNA level without ligand (log10) (hypoxanthine [3])	FACS-Seq fitted mean (log10) (hypoxanthine [4])
AGUUCA	0.179 ± 0.0096	1.91 ± 0.034	1.802 ± 0.0084	0.4165 ± 0.0023
GGUUGC	-0.0647 ± 0.067	1.92 ± 0.037	1.52 ± 0.035	0.345 ± 0.043
AGUUGC	0.226 ± 0.043	1.91 ± 0.048	1.72 ± 0.022	0.382 ± 0.02
CGUUGG	0.31411 ± 0.00021	1.966 ± 0.0055	1.413 ± 0.0094	0.58 ± 0.022
GGUUGG	-0.0305 ± 0.021	1.83 ± 0.074	1.27 ± 0.014	0.558 ± 0.021
AGUUGG	-0.154 ± 0.12	1.8 ± 0.037	1.338 ± 0.0021	0.403 ± 0.075
UGUUGU	0.254 ± 0.025	1.913 ± 0.0038	1.738 ± 0.011	0.57 ± 0.019
GGUUUA	0.149 ± 0.053	1.96 ± 0.024	1.87 ± 0.034	0.3294 ± 0.00074
AGUUUA	0.474 ± 0.011	1.93 ± 0.025	1.79 ± 0.027	0.651 ± 0.098
CGUUUC	0.944 ± 0.041	1.95 ± 0.058	1.908 ± 0.0084	0.812 ± 0.15
GGUUUG	0.0895 ± 0.042	1.9 ± 0.019	1.614 ± 0.0086	0.485 ± 0.021
UGUUUG	-0.153 ± 0.036	2.04 ± 0.037	1.93 ± 0.035	0.0349 ± 0.0062
GGUUUU	0.313 ± 0.029	1.93 ± 0.053	1.894 ± 0.0067	0.378 ± 0.028
GUAAAA	0.614 ± 0.066	1.92 ± 0.06	1.815 ± 0.0075	0.661 ± 0.033
UUAAAA	0.501 ± 0.012	1.966 ± 0.016	1.795 ± 0.0061	0.388 ± 0.15
CUAAAC	0.4073 ± 0.0033	1.89 ± 0.025	1.827 ± 0.015	0.415 ± 0.1
GUAAAC	0.572 ± 0.053	1.946 ± 0.0036	1.74 ± 0.028	0.739 ± 0.055
AUAAAC	0.413 ± 0.047	1.893 ± 0.0082	1.81 ± 0.023	0.517 ± 0.15

Variant	FACS-Seq fitted mean (log10) (hypoxanthine [1])	normalized RNA/DNA level with ligand (log10) (hypoxanthine [2])	normalized RNA/DNA level without ligand (log10) (hypoxanthine [3])	FACS-Seq fitted mean (log10) (hypoxanthine [4])
GUAAAG	-0.0437 ± 0.028	1.82 ± 0.023	1.49 ± 0.045	-0.15 ± 0.059
UUAAAG	0.207 ± 0.12	1.886 ± 0.0075	1.6908 ± 0.00025	0.201 ± 0.0094
AUAAAG	0.43 ± 0.03	1.87 ± 0.024	1.51 ± 0.053	0.678 ± 0.081
GUAAAU	0.503 ± 0.07	1.88 ± 0.053	1.778 ± 0.011	0.467 ± 0.11
UUAAAU	0.322 ± 0.05	1.959 ± 0.016	1.83 ± 0.024	0.322 ± 0.013
AUAAAU	0.431 ± 0.027	1.9 ± 0.035	1.7593 ± 0.00014	0.576 ± 0.017
AUAACA	0.00278 ± 0.0073	1.9 ± 0.041	1.83 ± 0.031	0.0853 ± 0.19
GUAACG	0.351 ± 0.015	1.93 ± 0.048	1.59 ± 0.022	0.537 ± 0.02
UUAACG	0.325 ± 0.025	1.94 ± 0.06	1.85 ± 0.052	0.41 ± 0.025
GUAAGA	0.291 ± 0.0051	1.89 ± 0.0055	1.73 ± 0.01	0.214 ± 0.029
UUAAGA	0.6835 ± 0.0045	1.884 ± 0.0019	1.68 ± 0.059	0.618 ± 0.02
AUAAGA	0.457 ± 0.047	1.9 ± 0.045	1.715 ± 0.0051	0.556 ± 0.068
CUAAGC	0.0548 ± 0.024	1.94 ± 0.048	1.851 ± 0.0075	0.039 ± 0.019
GUAAGC	0.302 ± 0.007	1.886 ± 0.015	1.53 ± 0.023	0.667 ± 0.078
AUAAGC	0.474 ± 0.0089	1.918 ± 0.014	1.786 ± 0.01	0.6615 ± 0.0049
GUAAGG	0.181 ± 0.047	1.87 ± 0.042	1.38 ± 0.015	0.408 ± 0.026
UUAAGG	0.505 ± 0.031	1.925 ± 0.015	1.77 ± 0.058	0.538 ± 0.077
AUAAGG	0.0649 ± 0.081	1.8 ± 0.019	1.4 ± 0.038	0.345 ± 0.062
